# Reference: the DeepSol protein solubility set
# Assay: soluble on expression in E. coli; label from the status in PepcDB or PDB records
row,Sequence,soluble on expression in E. coli
1,MNIDSDIFKIQSNNVLPSRGKILISEPFLRDATFGRSVVLLIDHTEEGSMGLIINKQLPIFVNDIIKEFKYIENIPLYKGGPIATDTLFYLHTLADIPGAIPISKGLYLNGDFDEIKKYILQGNKVDRYIRFFLGYSGWESEQLSTELKENTWLVSKEENAYLMNGDTKDMWKQALEKLGSKYETWSRFPQVPTFNLEHHHHHH,soluble
2,MNIGIIGTGNMGNILIDAFLETRAVKPSCLTIINRTPAKAYHIKEKYPSVHIAKTIPEVIEQSQLIFICVKPIDIYPILKKYAEHFSDETCLVSITSPISPSQLETLVPCHVARIIPSITNRALSGASLFTFGDNCSEEWQQKLLRLFKNISTPLVIEEDITRVSSDIASCGPAFFSYLLQCFINAAVDKTNITHEEATTLVSEMVVGMGKLLEKEIFTLPTLQEKVCVKGGVTGEGIRVLEEHVGDMFHKLIERTHEKFDEDLECVDQQFNKHTLEHHHHHH,soluble
3,MNIGKPRKLGKTIEDIEEGDSLSLTESIEDKDLLLYLGLTNDANPLYIQHDYAQKTEYEKPIVPSIMLMGIITSAISKHLPGPGSHVVNFSVNFVEPVFHYETLTFQLEVIKVDKMKDVITISVEAVNEQENRVLDAVVMVQPPQVTIDELTEKEGTLTYE,soluble
4,MNIIDFNKPVKRSFRGNTAPAPPLEKVLTVILKTDVPVLMGICSDGLRSNSAILGGEFQAEYFSGSVLSGGGNVLVELSSELAFLETRFTLITQLGELINVECKGVLLMDEEGQQELQSGVWPISEGHYQCTCTPRFQVSLGPNDWLEKSAFIGKIDYIQRNETLISFYRMKL,not soluble
5,MNIIDFRFRPNTEAILKGISSNPAFKGMCQSIDFNKMLPQTLEEVVEELDRHHVVKAVISGRDCETTYGAKSNNPSVIEFCHKFPDKFIGFAGLDPHKGMAALAEITHAVHEEGIKGAAIDPYLARIYVNDAKYYPIYAKCCELGIPLIIATGPGTLVPNAVIDHVAPRYIDFVARDFPELKIIASHGGYPWVNEMITVAQRNANVYLELSEYEFFPQSSAYIEAANSILSDKIMYASAHPFVDFKLALKNYEQLPLKPEVREKVMYKNAAKVLGLSDGTFSASKAMDAQEVQMIIENVIAQLSQRGLLANR,not soluble
6,MNIKKLAILGTLATTFSFEAFASTGMPKIEELTGDTRTACEVILCLSSAQGRGIKECQAPLRKYFSIRAKKWHKTLAKRRAFLDLCPAANENAKMSALTTAIQHQEYACDAGTLNSRTETRRNWVRRSSEDGGSFSRRLVRTQAYIPDFCKALYDHEFTEYKQIQKPKYVCDANKWYSQADWNRGFERVEVSRKWNHREDRYDIQYKDVPIKKDCWELEHHHHHH,not soluble
7,MNIQHNLNLIQQKIETACKEENRNQNTVKLLAVSKTKPISAILSAYQAGQTAFGENYVQEGVEKIQYFESQGINLEWHFIGPLQSNKTRLVAEHFDWMQTLDRAKIADRLNEQRPTNKAPLNVLIQINISDEESKSGIQPEEMLTLAKHIENLPHLCLRGLMAIPAPTDNIAEQENAFRKMLELFEQLKQVLPNQQIDTLSMGMTDDMPSAIKCGSTMVRIGTAIFGARNYSTSQNK,not soluble
8,MNITNEREDGEKMGSKNYTDVLIAGKIYTLGGLEEETYLQQVASYLNDKIAGLHRQDGFRKQPEDYQNVMTYLNIADDYFKEREHAGLLAVQKEELEKETYRLKHELVSTQMKLEAMRAELEKYKALETLEHSRGKEAEKEEQARK,soluble
9,MNKFFSADKKGGEKRRKKSKKKVRIVGMSEIGIWRQDDTMRIVHLSVWCILKRTTASLSGNEWKLSTRHANDGYIVRSPPTISGPERLQENGYVIWILL,not soluble
10,MNKGQRHIKIREIITSNEIETQDELVDMLKQDGYKVTQATVSRDIKELHLVKVPTNNGSYKYSLPADQRFNPLSKLKRALMDAFVKIDSASHMIVLKTMPGNAQAIGALMDNLDWDEMMGTICGDDTILIICRTPEDTEGVKNRLLELL,soluble
11,MNKLAVLYAEHIATLQKRTREIIERENLDGVVFHSGQAKRQFLDDMYYPFKVNPQFKAWLPVIDNPHCWIVANGTDKPKLIFYRPVDFWHKVPDEPNEYWADYFDIELLVKPDQVEKLLPYDKARFAYIGEYLEVAQALGFELMNPEPVMNFYHYHRAYKTQYELACMREANKIAVQGHKAARDAFFQGKSEFEIQQAYLLATQHSENDNPYGNIVALNENCAILHYTHFDRVAPATHRSFLIDAGANFNGYAADITRTYDFTGEGEFAELVATMKQHQIALMNQLAPGKLYGELHLDCHQRVAQTLSDFNIVDLSADEIVAKGITSTFFPHGLGHHIGLQVHDVGGFMADEQGAHQEPPEGHPFLRCTRKIEANQVFTIEPGLYFIDSLLGDLAATDNNQHINWDKVAELKPFGGIRIEDNIIVHEDSLENMTRELRLRLTTHSLRGLSAPQFSINDPAVMSEYSYPSEPLSYEEEIKKSTFIVHVRTRRILVRRRTLSPILIAVTPMPAITAGLM,soluble
12,MNKNKPFIVVIVGPTASGKTELSIELAKRINGEIISGDSMQVYKHMNIGTAKVTPEEMDGIPHHLIDILNPDDTFSAYEFKRLAEDLITDITNRGKVPIIAGGTGLYIQSLIYNYELEDETVTPAQLSIVKQKLSALEHLDNQQLHDYLAQFDAVSAENIHPNNRQRVLRAIEYYLKTKKLLSNRKKVQQFTENYDTLLLGIEMSRKTLYSRINKRVDIMLDHGLFREVQQLVEQGYESCQSMQAIGYKELIPVINGQMIYEDAVNDLKQHSRQYAKRQMTWFKNKMSVHWLDKENMSLQMMLDEITTQIKMAGDPLEHHHHHH,not soluble
13,MNKNSTSNKKNSKNKKKVDKLDLILNEFKNDIKNEKGENNQNDNKLLNGAIETNNNNNNNNNNSGNNRIHFDKEEIKEIKKKIILKEHVLEEQDNSSIRLLKNWPQLEKTYQTNPPCIPIDMIYGKDGKYPVGEILEYNNYNLSGQSLVEKKEREKLSIDYYEDLRKAAECHRQVRKHMQAFIKPGKKMIDIAQETERKTKELILAEKLKCGWGFPTGCSLNHCAAHYTPNYGDETVLKYDDVCKLDFGVHVNGYIIDCAFTIAFNEKYDNLIKATQDGTNTGIKEAGIDARMCDIGEAIQEAIESYEIELNQKIYPIKAISNLRGHSINKYIIHGGKCVPIVRQKEKNEIMEEGELFAIETFASTGKGYVNHENECSHYMRNPEKQFVPIRLNSAKTLLKVINDNFDTLPFCNRWLDDLGQTRHFMALKTLIDLNIVEPYPPLCDIKNSFTSQMEHTILLRPTCKEVLSRG,not soluble
14,MNKNVMVKGLTALTILTILTSLGFAENISNQPHSIAKAEKNVKEITDATKEPYNSVVAFVGGTGVVVGKNTIVTNKHIAKSNDIFKNRVSAHHSSKGKGGGNYDVKDIVEYPGKEDLAIVHVHETSTEGLNFNKNVSYTKFADGAKVKDRISVIGYPKGAQTKYKMFESTGTINHISGTFMEFDAYAQPGNSGSPVLNSKHELIGILYAGSGKDESEKNFGVYFTPQLKEFIQNNIEK,not soluble
15,MNKQLTTIGIMASLFATSSFATDWTQIEKEAQGQTVYFHAWGGSQEINHYLQWANKELQSKYQVTLKHVKVSDISETIPRLIAEKAADKNTNGSVDMVWINGENFKSMKDNQLLFGPFTENLPSWKYVDKMLPIDVDFSEPTDGLEAPWGVGQLVFIHDSENLTNPPHSFAEMLSYAQKKPNSLSYPRPPEFHGTSVLKSMLIELTNNNPALQKPVSESDFNAVTAPLWDYLEKFHKVAWRGGKQFPAGTSETIQLLDDGQLDLAVTFNPNAVYSAQANGNLANTTKAYAMDSGALSNIHFLAIPWNAKASAGAQVAINFLLSPEAQSRKGDLNVWGDPSVLSSKYLTGSAKNTQQFKSVSEPHPSWQAAIEKEWLKRFGS,soluble
16,MNKSRVVVGMSGGVDSSVAALLLKQQGYDVTGLFMKNWEEDDTDEYCSSRQDFLDAASVADILDIPLEVVNFSTEYRERVFNLFLKEYQAGRTPNPDVLCNSEIKFRAFLDHALNLGADWIATGHYAQVHETDGLFQLLKGEDGNKDQSYFLYRLNQQQLSHTIFPIGHLYKREVRKIAREHRLPNSTKKDSTGICFIGERPFREFLNRYLPANPGEIHTLDDQVVGEHLGVMYYTIGQRQGLGIGGTRQGSEQPWFVSGKDIKKNVLYVVQGHDHPALLRSSLTAADLSWISGTPPHQNWVYAAKIRYRQTDAPCAITHFEHDSCQIGFAAPQWGITPGQSVVVYESKVCLGGGVIIGSNDLEHHHHHH,not soluble
17,MNLASQISQAKTGNATMEWAKNYVSKLNDGQLALLQKMYADHQAKLKASEDEKKKKEMEELKMKAQQQAILDSLTQQIPIMVDVLRSSTSPDSQPSSSSSVMSSTDEDQITVKDVLIGKINKAQRQSSPNSSKPYTPRGIRERVLFDEHLYVFDKCSYDSKKRFFRCERKNTCPARIHTPFDAERVIHKVQVHNHPPPTTFDLAHYNIDYGKVKSGHILSLNGPQQTKNLLPPSLLTPKSDLEDETLSTKTEQKNASTMNILLSMTNNCDGRKPITLRLPDLFNKISEMEIHDMEMTLTKFLLENRELRTDLISRNGDLPVFFPNAHNDELVLFVADQHENDSVFQMIRVSERNEKSIRQAIQEHLQKVSNRSLMMNISSKINVPLSQQMIDQWRTEEFIRLDSSKPNFWKIHHVSKLQD,not soluble
18,MNLDDIINSMTPEVYQRLSTAVELGKWPDGVALTEEQKENCLQLVMLWQARHNTEAQHMTIDTNGQMVMKSKQQLKEDFGISAKPIAMFK,not soluble
19,MNLPSKFHQVTITDPIAGAGITFTIPTRYVNLKFLNVGAQGIVVMADDLVTTQRVAIKKMQQPFLLTMSARRAYREFILLTTLKHPNIIRLLNAFTPDTSLSSFQEVYLVMEFMTHNLHEVIHRLRLDHETLSFLVYQSLCAIKHLHNLGFIHRDLKPSNIVVNERCVLKVLDFGLARRRNVDMRMSDYVGTRYYRAPEVILGLNYSEKVDIWSVGCILAEMINHTVLFPGKDIRDQWTQISSVLRTPDDHFINQLEPIGAVYVRSLPQHLARAFNEIVPDSNFLPETENPKDHLTLHMARDLLFNMLKINPEERYSVEDALNHPYTMVQGR,not soluble
20,MNLRSRLVNATERAVLFQIFKDVQNDPEKYDNAVEAICESIDYFGKFLTDSEYLTQIKPILDTQCPTKSIICFSKCLTKVSTDINTTTFRDVITMLDWLKYVVEKSLTSAICSSLKVKETDVSAVQLYREFASACSNIPEKVSNCCAKALSGEHVKYINTVKWIFKMNLVQGIQKAMLLAHDDIVTAAPFTSFYGSGGPYMKTVAEIISSGRNIDITNKDGLLVQMIEWIGSLNNFDSQWRRMMFLIFQEPTYQGIQVHESLLTTLFLISKSDQILKRCIEATDLTGTLKRVVMVKLPFQRVLKRKTIEILINFVYRTKEQFAIQLLETSVKIWSDLNYAKSAPESQERHIVRMILYLVHLFRTCSSIDWESLFLNSMDGVHCRMSMLPMYVQSGIFVNQALCKQATKHRSKTHGSDEQPPETLEENKFVSSEVGKIWFEEMTSILEHGFNSSTVKDSERVRETANEITKDDSGEEFEETNAQRLQNNKDSAAITSKNNLRLDSDDDEDFPDYQVNESEKIFKNLEIGEEPKNKVTPPAYIADAFEMLLEKEKYEVFEAAFFNITNLINRRPIGFPQIAEKLFIRILHLQNNFGTPKFKETVDEIAVACITQRPEIVPSVVRLIIAPGQGFSIKQRLLHYIHNAADGMGALDKKLEECVMAQQLRIGGPTLSIILHRTINTDYDDEDEDPHRLLVPEWRRMVDARIAANTRRIGTTREPPRAGVVNRLAQAAKYMFYPLLVLPRGENASLLGKDSDLLASLIMVASMVYVRCGVCPQIHRMSSELISYATPHRFSENAKLRTACIIAHLNVTTLLPGDLMDELFDVPALIGWFDWANSVLVNASSSQLEKDMTRQFGHSVTKHLQRYHPAVLQHQDV,not soluble
